# Target: Glmn, purified, His6-MBP removed (human, UniProt Q92990 1-594)
# Test: SEC
# Chain of Glmn, purified, His6-MBP removed (Q92990 whole entry): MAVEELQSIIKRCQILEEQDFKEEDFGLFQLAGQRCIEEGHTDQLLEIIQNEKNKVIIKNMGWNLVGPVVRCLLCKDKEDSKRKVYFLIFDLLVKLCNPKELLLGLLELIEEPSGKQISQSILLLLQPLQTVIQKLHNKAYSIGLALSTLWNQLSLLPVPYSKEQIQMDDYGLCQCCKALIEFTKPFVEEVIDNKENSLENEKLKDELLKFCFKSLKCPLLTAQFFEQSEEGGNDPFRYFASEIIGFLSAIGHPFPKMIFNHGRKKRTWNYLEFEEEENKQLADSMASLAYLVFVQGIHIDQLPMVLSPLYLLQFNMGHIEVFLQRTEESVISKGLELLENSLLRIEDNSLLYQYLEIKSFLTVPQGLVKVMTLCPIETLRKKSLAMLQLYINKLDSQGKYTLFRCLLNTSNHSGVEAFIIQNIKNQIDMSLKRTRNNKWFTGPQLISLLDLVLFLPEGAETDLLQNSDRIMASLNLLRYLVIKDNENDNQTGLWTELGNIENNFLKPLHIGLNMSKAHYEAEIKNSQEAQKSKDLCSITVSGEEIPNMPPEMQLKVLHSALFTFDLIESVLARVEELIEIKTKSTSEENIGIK
binder,measurement,value
"Rbx1^RING, GST removed (domain or fragment) not shown",binding result,binds
